Values of other authors in PMC2981439.

Biological target: quinone MADH (Paracoccus denitrificans) (UniProt P22619)
UniProt P22619, sequence (P22619 58-188, chain 1 of 2): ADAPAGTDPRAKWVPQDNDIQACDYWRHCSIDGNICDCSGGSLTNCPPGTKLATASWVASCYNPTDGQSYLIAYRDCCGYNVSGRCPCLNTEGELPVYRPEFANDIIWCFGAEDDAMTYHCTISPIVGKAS
UniProt P22619, sequence (P29894 29-417, chain 2 of 2, further chain): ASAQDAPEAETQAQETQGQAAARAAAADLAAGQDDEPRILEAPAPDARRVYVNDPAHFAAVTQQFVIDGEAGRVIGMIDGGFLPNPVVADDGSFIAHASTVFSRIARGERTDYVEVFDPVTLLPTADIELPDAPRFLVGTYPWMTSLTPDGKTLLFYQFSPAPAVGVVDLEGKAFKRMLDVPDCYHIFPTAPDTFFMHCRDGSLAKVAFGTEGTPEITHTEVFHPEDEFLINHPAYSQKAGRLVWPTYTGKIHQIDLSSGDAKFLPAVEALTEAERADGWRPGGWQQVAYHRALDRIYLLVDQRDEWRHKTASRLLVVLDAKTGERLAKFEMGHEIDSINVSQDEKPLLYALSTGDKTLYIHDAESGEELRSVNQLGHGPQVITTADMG

MauG (from UniProt Q51658)
Kd: 10.1 µM
